Test results as given in PMC2919228 (Molecular cell, 2010).

Target: Skp1-GST/Cdc4-HA (Saccharomyces cerevisiae, UniProt P52286 1-194; P07834 1-779)
Assay: pull-down

Chain of Skp1-GST/Cdc4-HA (P52286 whole entry, chain 1 of 2): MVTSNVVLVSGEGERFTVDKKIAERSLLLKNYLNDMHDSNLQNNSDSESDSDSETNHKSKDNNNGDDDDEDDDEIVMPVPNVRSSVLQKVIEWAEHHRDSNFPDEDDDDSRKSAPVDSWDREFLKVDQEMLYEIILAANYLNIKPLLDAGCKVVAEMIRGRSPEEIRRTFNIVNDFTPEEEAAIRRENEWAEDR
Chain of Skp1-GST/Cdc4-HA (P07834 whole entry, chain 2 of 2): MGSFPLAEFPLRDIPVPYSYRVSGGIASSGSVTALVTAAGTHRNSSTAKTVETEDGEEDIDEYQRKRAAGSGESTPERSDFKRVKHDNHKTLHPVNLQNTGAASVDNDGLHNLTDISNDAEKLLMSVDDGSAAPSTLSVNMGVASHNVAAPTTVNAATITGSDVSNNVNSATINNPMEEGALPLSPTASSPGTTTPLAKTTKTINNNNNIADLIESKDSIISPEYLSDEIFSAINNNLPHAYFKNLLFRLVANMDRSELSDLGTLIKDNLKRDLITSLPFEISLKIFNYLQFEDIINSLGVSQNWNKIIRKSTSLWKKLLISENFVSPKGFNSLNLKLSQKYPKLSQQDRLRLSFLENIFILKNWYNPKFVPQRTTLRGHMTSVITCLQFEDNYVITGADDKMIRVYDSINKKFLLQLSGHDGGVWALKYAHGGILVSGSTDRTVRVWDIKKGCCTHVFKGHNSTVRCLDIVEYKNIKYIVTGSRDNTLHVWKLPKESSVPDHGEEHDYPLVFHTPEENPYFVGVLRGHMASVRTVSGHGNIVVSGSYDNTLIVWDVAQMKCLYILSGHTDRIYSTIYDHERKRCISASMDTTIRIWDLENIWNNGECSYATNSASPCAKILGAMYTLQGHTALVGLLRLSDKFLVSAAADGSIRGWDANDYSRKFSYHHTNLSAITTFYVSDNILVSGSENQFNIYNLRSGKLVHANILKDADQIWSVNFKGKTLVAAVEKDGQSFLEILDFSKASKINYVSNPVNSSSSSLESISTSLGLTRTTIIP

binding result: binds
B1: Gpa1-Flag (natural protein, Saccharomyces cerevisiae, UniProt P08539 1-472, looked up)
chain: MGCTVSTQTIGDESDPFLQNKRANDVIEQSLQLEKQRDKNEIKLLLLGAGESGKSTVLKQLKLLHQGGFSHQERLQYAQVIWADAIQSMKILIIQARKLGIQLDCDDPINNKDLFACKRILLKAKALDYINASVAGGSDFLNDYVLKYSERYETRRRVQSTGRAKAAFDEDGNISNVKSDTDRDAETVTQNEDADRNNSSRINLQDICKDLNQEGDDQMFVRKTSREIQGQNRRNLIHEDIAKAIKQLWNNDKGIKQCFARSNEFQLEGSAAYYFDNIEKFASPNYVCTDEDILKGRIKTTGITETEFNIGSSKFKVLDAGGQRSERKKWIHCFEGITAVLFVLAMSEYDQMLFEDERVNRMHESIMLFDTLLNSKWFKDTPFILFLNKIDLFEEKVKSMPIRKYFPDYQGRVGDAEAGLKYFEKIFLSLNKTNKPIYVKRTCATDTQTMKFVLSAVTDLIIQQNLKKIGII
